This data set is described as follows: self-splicing fitness, log relative to wild type (ln ratio); higher = more splicing; Tetrahymena group I intron in knt gene, E. coli kanamycin selection, DiMSum; sequences stand for … in CUCUCU…GGAGGGAAAAGUUAUCAGGCAUGCACCUGGUAGCUAGUCUUUAAACCAAUAGAUUGCAUCGGUUUAAAAGGCAAGACCGUCAAAUUGCGGGAAAGGGGUCAACAGCCGUUCAGUACCAAGUCUCAGGGGAAACUUUGAGAUGGCCUUGCAAAGGGUAUGGUAAUAAGCUGACGGACAUGGUCCUAACCACGCAGCCAAGUCCUAAGUCAACAGAUCUUCUGUUGAUAUGGAUGCAGUUCACAGACUAAAUGUCGGUCGGGGAAGAUGUAUUCUUCUCAUAAGAUAUAGUCGGACCUCUCCUUAAUGGGAGCUAGCGGAUGAAGUGAUGCAACACUGGAGCCGCUGGGAACUAAUUUGUAUGCGAAAGUAUAUUGAUUAGUUUUGGAGUACUCGUGGUCG
The procedure, abridged: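 Fitness was computed with DiMSum as the error-weighted combination of replicate fold changes, kanamycin versus none, each normalised to wild type. The library randomised all eight intron nucleotides of the P1ex region, with the intron placed in the knt kanamycin-resistance gene on pET-22b(+) in E. coli BL21(DE3). Six replicate transformations were grown overnight at 37°C or 30°C on LB agar with or without 25 μg/mL kanamycin, plus 100 μg/mL carbenicillin, 50 μM IPTG and 0.2% rhamnose. Pooled colonies were amplicon-sequenced on an Illumina HiSeq 2500.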

Here are results for 35 sequences from the supplement of paper PMC7877785.

± gives the uncertainty stated by the source.

Turning to UCGGAGCAAUAUUACGAGUA, the “self-splicing fitness (ln)” value is -3.11 ± 0.42 (30 °C) and -1.89 ± 0.31 (37 °C). As to UCGGAGCAAUAUUACGAUAG, the “self-splicing fitness (ln)” value was -3.29 ± 0.32 (30 °C) and -2.83 ± 0.35 (37 °C). Consider UCGGAGCAAUAUUACGCAAG, for which the “self-splicing fitness (ln)” value (37 °C) was -2.23 ± 0.43.

For UCGGAGCAAUAUUACGCAGG, the “self-splicing fitness (ln)” value runs as follows: (30 °C) -2.57 ± 0.44; (37 °C) -2.28 ± 0.43. In the case of UCGGAGCAAUAUUACGCUGG, the “self-splicing fitness (ln)” value was -3.78 ± 0.46 (30 °C) and -1.26 ± 0.17 (37 °C). For the sequence UCGGAGCAAUAUUACGGAGA, the “self-splicing fitness (ln)” value was -3.67 ± 0.21 (30 °C) and -1.49 ± 0.14 (37 °C). In the same order, the values of UCGGAGCAAUAUUACGGCUU are -3.05 ± 0.32 and -1.45 ± 0.35.

Consider UCGGAGCAAUAUUACGGGUG, for which the “self-splicing fitness (ln)” value is -3.03 ± 0.24 (30 °C) and -2.94 ± 0.2 (37 °C).

As to UCGGAGCAAUAUUACGGGUU, the “self-splicing fitness (ln)” value (30 °C) was -2.86 ± 0.41. Turning to UCGGAGCAAUAUUACGGUAC, the “self-splicing fitness (ln)” value was -3.19 ± 0.29 (30 °C) and -3.59 ± 0.36 (37 °C). As for UCGGAGCAAUAUUACGGUUU, the “self-splicing fitness (ln)” value (37 °C) is -1.87 ± 0.34. On the same count and under the same terms, to UCGGAGCAAUAUUACGUACU belongs -2.6 ± 0.34.

For UCGGAGCAAUAUUACGUAGU, the “self-splicing fitness (ln)” value (37 °C) is -0.551 ± 0.29. Turning to UCGGAGCAAUAUUACGUGAC, the “self-splicing fitness (ln)” value runs as follows: (30 °C) -1.95 ± 0.34; (37 °C) -2.14 ± 0.46. As for UCGGAGCAAUAUUACGUGGU, the “self-splicing fitness (ln)” value by setting is: (30 °C) -3.59 ± 0.39; (37 °C) -1.72 ± 0.34.

Turning to UCGUAGCAAUAUUACGAAGG, for the setting “30 °C”, the “self-splicing fitness (ln)” value was -3.63 ± 0.47. For the sequence UCGUAGCAAUAUUACGAAUG, for the setting “30 °C”, the “self-splicing fitness (ln)” value was -2.01 ± 0.29. In the case of UCGUAGCAAUAUUACGACAU, the “self-splicing fitness (ln)” value was -3.861 ± 0.035 (30 °C) and -2.69 ± 0.043 (37 °C). On to UCGUAGCAAUAUUACGACUG, for which the “self-splicing fitness (ln)” value runs as follows: (30 °C) -1.02 ± 0.2; (37 °C) -2.28 ± 0.34. In the same order, the values of UCGUAGCAAUAUUACGAUAU are -3.38 ± 0.31 and -1.85 ± 0.37. With UCGUAGCAAUAUUACGAUGC, the “self-splicing fitness (ln)” value reads like this: (30 °C) -4.1 ± 0.33; (37 °C) -2.27 ± 0.27. As for UCGUAGCAAUAUUACGCAAA, the “self-splicing fitness (ln)” value (30 °C) was -3.4 ± 0.31 and the “self-splicing fitness (ln)” value (37 °C) was -1.09 ± 0.31. UCGUAGCAAUAUUACGCAUU: the “self-splicing fitness (ln)” value (30 °C) was -3.24 ± 0.23 and the “self-splicing fitness (ln)” value (37 °C) was -1.84 ± 0.15. UCGUAGCAAUAUUACGCCUU: the “self-splicing fitness (ln)” value runs as follows: (30 °C) -2.21 ± 0.13; (37 °C) -0.619 ± 0.13. Take UCGUAGCAAUAUUACGGAAA: the “self-splicing fitness (ln)” value was -3.38 ± 0.35 (30 °C) and -2.72 ± 0.31 (37 °C).

On to UCGUAGCAAUAUUACGGAUC, for which the “self-splicing fitness (ln)” value (30 °C) is -3.32 ± 0.45 and the “self-splicing fitness (ln)” value (37 °C) was -2.85 ± 0.48. With UCGUAGCAAUAUUACGGCAA, the “self-splicing fitness (ln)” value (30 °C) was -2.52 ± 0.36 and the “self-splicing fitness (ln)” value (37 °C) is -0.888 ± 0.27.

With UCGUAGCAAUAUUACGGCGG, the “self-splicing fitness (ln)” value was -2.41 ± 0.14 (30 °C) and -0.883 ± 0.15 (37 °C). In the same order, the values of UCGUAGCAAUAUUACGGCGU are -3.46 ± 0.34 and -1.6 ± 0.22. In the case of UCGUAGCAAUAUUACGGCUG, the “self-splicing fitness (ln)” value is -3.29 ± 0.13 (30 °C) and -1.38 ± 0.14 (37 °C). Turning to UCGUAGCAAUAUUACGGGCG, the “self-splicing fitness (ln)” value was -2.12 ± 0.18 (30 °C) and -1.11 ± 0.17 (37 °C). With UCGUAGCAAUAUUACGUACA, the “self-splicing fitness (ln)” value (30 °C) was -1.71 ± 0.24 and the “self-splicing fitness (ln)” value (37 °C) is -1.73 ± 0.26. On to UCGUAGCAAUAUUACGUACU, for which the “self-splicing fitness (ln)” value runs as follows: (30 °C) -2.04 ± 0.23; (37 °C) -1.27 ± 0.17. In the case of UCGUAGCAAUAUUACGUGCG, the “self-splicing fitness (ln)” value reads like this: (30 °C) -2.44 ± 0.14; (37 °C) -0.347 ± 0.14. For UCGUAGCAAUAUUACGUGGG, the “self-splicing fitness (ln)” value by setting is: (30 °C) -3.54 ± 0.24; (37 °C) -3.92 ± 0.28.
